Source: US7485618B2, “FGF-5 supported and binding peptides” (Genencor International, Inc., priority 2003, dated 2009)

target: T1, FGF-5 (Homo sapiens, UniProt P12034); experiment: BLA binding assay on FGF-5 coated plates, nitrocefin readout; conditions: purified peptide-BLA fusions at 0.1 nM, bound to FGF-5
T1 construct: host or cells: FGF-5 added exogenously to NR6R-3T3 murine fibroblasts
T1 sequence (P12034 21-268): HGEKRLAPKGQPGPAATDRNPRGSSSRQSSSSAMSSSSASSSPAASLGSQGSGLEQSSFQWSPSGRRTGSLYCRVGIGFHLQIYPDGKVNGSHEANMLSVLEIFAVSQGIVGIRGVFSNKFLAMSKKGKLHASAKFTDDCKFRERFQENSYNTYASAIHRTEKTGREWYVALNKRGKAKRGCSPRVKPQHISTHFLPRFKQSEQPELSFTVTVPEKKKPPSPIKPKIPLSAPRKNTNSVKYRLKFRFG
Experimental: This Example describes secondary screening methods used to analyze FGF-5 binding npeptides. Individual clones were picked and grown up in 5 ml LB+5 ppm CMP overnight at 37° C. The cell pastes were then treated with 125μ of B-PER reagent (Pierce) for 30 min with slow mixing. COSTAR plates (96-well) were coated with 0.1 μg (100 μl of 1 μg/ml) FGF-5, carrier-free (R&D Systems #237-F5/CF, Lot #GQ18304A) with gentle rocking at 4° C. overnight, followed by blocking with Superblock blocking buffer (Pierce) for several hours at room temperature. Then, 100 μl B-Per treated supernatant from individual clones from pGV02-L were added to the FGF-5 coated plates. After one hour, plates were washed six times with PBS, 0.05% TWEEN®-20 and 200 μl of nitrocefin assay buffer containing 0.1 mg/ml nitrocefin (Oxoid) was added to measure residual bound beta-lactamase activity, using Abs490/min. Control wells contained pCB04 (See, FIG. 1C) beta-lactamase as a control. […] These clones were sequenced, and the results are provided in Table 1, where the first column is the name of the peptide, the second column is the nucleotide sequence and the third column is the amino acid sequence of the peptide:
Cell pastes were harvested from the 200 ml cell cultures described in Example 6, by centrifugation at 3,000×g for 10 min. The pastes were then treated with 25 ml of B-PER reagent (Pierce) for 40 min with slow mixing. The extract was separated by centrifugation at 20,000 g for 20 min. BLA activity of all liquid fractions was assayed using nitrocefin, and the concentration of fusion proteins in each fraction was calculated assuming the same specific activity as the WT enzyme. Fusion proteins were purified by IMAC chromatography (See, FIG. 4). The imidazole-eluted BLA-active fractions were pooled and the purity was found better than 95% as checked by SDS-PAGE. (See, FIG. 5).
The binding (BLA assay) was repeated using different peptide concentrations to see a dose response. To verify specific binding, the assay was also done using an irrelevant target. The results are shown in FIG. 6 and in Table 2, below.

Percent Bound at 0.1 nM [%] | Sequence
5 | CHYLLTNYC (synthesized FGF-5 binding peptide) [2H9, tested as BLA fusion]
8 | CRIHLAHKC (synthesized FGF-5 binding peptide) [2H10, tested as BLA fusion]
7 | CLTVLWTTC (synthesized FGF-5 binding peptide) [2E2, tested as BLA and BBI/BCE fusions]
8 | CEEIWTMLC (synthesized FGF-5 binding peptide) [1A6, tested as BLA and BBI/BCE fusions]
